We go through one molecule from patent US20240285753A1 (DUKE UNIVERSITY, published 2024).

Positions count from the first letter of the chain named. Where two headings read alike, the source gives them in different places.

For one assay, the target named is S2hlx-Ex8-Trx F1148A. Put plainly: ELISA; antigen coated, mAb titrated. In general terms: ELISA stands for enzyme-linked immunosorbent assay.
Another assay concerns the target T1, S2hlx-Ex15 F1148A.
T1 epitope scaffold: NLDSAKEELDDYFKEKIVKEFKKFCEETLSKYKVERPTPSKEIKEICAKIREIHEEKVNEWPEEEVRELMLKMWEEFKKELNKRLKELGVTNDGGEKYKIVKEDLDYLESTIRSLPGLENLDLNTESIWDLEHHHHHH
Put plainly: ELISA; antigen coated, mAb titrated.

Assay [1] deals with T2, S2hlx-8.
T2 epitope scaffold: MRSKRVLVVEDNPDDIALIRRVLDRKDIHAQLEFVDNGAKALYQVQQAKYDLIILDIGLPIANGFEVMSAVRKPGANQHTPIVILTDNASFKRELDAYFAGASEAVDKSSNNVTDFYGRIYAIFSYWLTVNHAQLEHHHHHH
Put plainly: SPR, mAb captured, antigen as analyte.

The target of assay [2] is T3, S2hlx-13.
T3 epitope scaffold: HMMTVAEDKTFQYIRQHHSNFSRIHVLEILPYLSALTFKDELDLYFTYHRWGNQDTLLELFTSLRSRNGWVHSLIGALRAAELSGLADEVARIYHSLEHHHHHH
Put plainly: SPR, mAb captured, antigen as analyte.

Assay [3] addresses T4, S2hlx-1.
T4 epitope scaffold: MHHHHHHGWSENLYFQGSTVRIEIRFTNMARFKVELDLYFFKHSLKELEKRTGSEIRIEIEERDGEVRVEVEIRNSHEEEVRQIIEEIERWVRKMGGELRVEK
Put plainly: SPR, mAb captured, antigen as analyte.

The target in assay [4] is S2hlx-14. Put plainly: SPR, mAb captured, antigen as analyte.
Another assay addresses T5, S2hlx-Ex34 L1145A.
T5 epitope scaffold: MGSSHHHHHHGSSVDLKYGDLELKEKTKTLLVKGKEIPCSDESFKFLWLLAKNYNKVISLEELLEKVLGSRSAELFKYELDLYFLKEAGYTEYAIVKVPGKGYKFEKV
Put plainly: ELISA; antigen coated, mAb titrated.

The next assay addresses T6, S2hlx-Ex34 F1148A.
T6 epitope scaffold: T5 epitope scaffold with A73L, F76A
Put plainly: ELISA; antigen coated, mAb titrated.

Assay [5] concerns the target T7, S2hlx-Ex34.
T7 chain: T5 epitope scaffold with A73L
Put plainly: ELISA; antigen coated, mAb titrated.

For the next assay, the target named is HKU-1 spike (2P) (human coronavirus HKU1). Put plainly: ELISA, coated spike, mAb titrated.
For a further assay, the target named is T8, S2hlx-Ex17.
T8 chain: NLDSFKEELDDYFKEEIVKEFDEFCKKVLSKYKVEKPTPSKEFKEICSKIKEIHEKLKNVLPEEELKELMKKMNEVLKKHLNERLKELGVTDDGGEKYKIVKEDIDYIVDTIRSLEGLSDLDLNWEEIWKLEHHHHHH
Put plainly: SPR, mAb captured, antigen as analyte. (In general: SPR reads the build-up and loss of mass on a sensor chip optically.)

The next assay concerns the target T9, S2hlx-Ex20.
T9 chain: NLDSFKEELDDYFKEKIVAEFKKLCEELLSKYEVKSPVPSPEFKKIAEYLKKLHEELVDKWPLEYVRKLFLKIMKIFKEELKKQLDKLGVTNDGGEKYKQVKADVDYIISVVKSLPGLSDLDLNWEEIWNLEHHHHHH
Briefly: SPR, mAb captured, antigen as analyte.

A further assay has as its target T10, S2hlx-Ex15.
T10 chain: T1 epitope scaffold with A5F
Put plainly: SPR, mAb captured, antigen as analyte.

The target in assay [6] is S2hlx-4. Put plainly: SPR, mAb captured, antigen as analyte.
S2hlx-4, sequence (chain, as listed by the source): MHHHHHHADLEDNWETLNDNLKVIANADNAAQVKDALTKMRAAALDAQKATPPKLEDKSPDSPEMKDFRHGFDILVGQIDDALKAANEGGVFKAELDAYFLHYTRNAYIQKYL
For assay [7], the target named is T2, S2hlx-8. Briefly: SPR, mAb captured, antigen as analyte.
Assay [8] has as its target S2hlx-4. Put plainly: SPR, mAb captured, antigen as analyte. This is another data set of the same source.
For assay [9], the target named is T3, S2hlx-13. Put plainly: SPR, mAb captured, antigen as analyte.
Assay [10] addresses T4, S2hlx-1. Briefly: SPR, mAb captured, antigen as analyte.
The target of assay [11] is S2hlx-14. Briefly: SPR, mAb captured, antigen as analyte. The source holds these as a separate data set.
For the next assay, the target named is CC19 LA. Put plainly: ELISA, coated antigen, mAb titrated.
For another assay, the target named is T11, S2hlx-Ex46.
T11 epitope scaffold: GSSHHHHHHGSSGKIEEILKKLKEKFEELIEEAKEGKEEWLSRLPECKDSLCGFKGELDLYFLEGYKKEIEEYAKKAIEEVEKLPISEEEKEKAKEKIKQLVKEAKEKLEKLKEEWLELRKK
Briefly: SPR, single cycle; mAb captured on Protein A, epitope scaffold as analyte.

In the next assay the target is T12, S2hlx-Ex37.
T12 chain: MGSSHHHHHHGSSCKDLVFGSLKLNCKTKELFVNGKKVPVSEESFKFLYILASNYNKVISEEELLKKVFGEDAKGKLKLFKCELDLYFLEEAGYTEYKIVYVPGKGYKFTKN
The description is as above.

Another assay has as its target T13, S2hlx-Ex8-Trx.
T13 chain: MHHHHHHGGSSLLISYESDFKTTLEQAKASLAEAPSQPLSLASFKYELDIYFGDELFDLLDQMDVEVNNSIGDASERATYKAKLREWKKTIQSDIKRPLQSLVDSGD
Put plainly: SPR, mAb captured, antigen as analyte.

In assay [12] the target is T7, S2hlx-Ex34. Briefly: SPR, mAb captured, antigen as analyte.

B1: S2P6 mAb (antibody, V domains shown)
VH: EVQLVQSGAEVKKPGASVKVSCKASGYTFTSQYMHWVRQAPGQGLEWIGIINPSGVHTSYAQKFQGRVTLTRDTSTSTLYMELSSLRSEDTAVYYCARGSPKGAFDYWGQGTLVTVSS
VL: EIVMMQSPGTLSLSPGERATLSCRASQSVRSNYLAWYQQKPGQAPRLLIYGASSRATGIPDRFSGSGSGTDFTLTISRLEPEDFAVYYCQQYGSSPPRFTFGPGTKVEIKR
The term EC50 (read off the curve) denotes the concentration at which the effect is half-maximal. Usually Kd stands for the concentration at which binding is half-saturated. Lower therefore signals higher affinity. For the molecule B1, the “EC50 (read off the curve)” value with S2hlx-Ex8-Trx F1148A was approximately 0.04 µg/mL; with S2hlx-Ex15 F1148A, approximately 0.07 µg/mL; in the assay with S2hlx-Ex34 L1145A, approximately 0.02 µg/mL; in the assay with S2hlx-Ex34 F1148A, approximately 0.09 µg/mL; with S2hlx-Ex34 [5] it was approximately 0.02 µg/mL; in the assay with HKU-1 spike (2P), approximately 0.3 µg/mL. In the assay with CC19 LA, the “EC50 (read off the curve)” value is approximately 0.02 µg/mL. In addition, the dissociation constant Kd with S2hlx-8 [1] turned out to be 63 nM; with S2hlx-13 [2], 83 nM; in the assay with S2hlx-1 [3] it was 52.8 nM; with S2hlx-14 [4], 30 nM; in the assay with S2hlx-Ex17 it was 29.6 nM; in the assay with S2hlx-Ex20, 10.7 nM. The Kd with S2hlx-Ex15 is 6 nM; in the assay with S2hlx-4 [6], 47.7 nM; in the assay with S2hlx-8 [7], 63 nM; in the assay with S2hlx-4 [8] it was 47.7 nM; in the assay with S2hlx-13 [9] it was 83 nM; with S2hlx-1 [10], 52.8 nM. Besides, the Kd with S2hlx-14 [11] worked out at 30 nM; with S2hlx-Ex46, 296 nM; with S2hlx-Ex37 it was 664 nM; with S2hlx-Ex8-Trx, 568 nM; in the assay with S2hlx-Ex34 [12] it was 143 nM.
